# Source: the domain aggregation screens of Martell et al. (2025)
# Assay: soluble fraction after stress (log2 fold change); higher = more stays soluble; pooled small domains, quantitative proteomics
# Details: stress: 75 degC
# 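Also: 20 min heating vs room temperature control held 20 min.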
row,Sequence,soluble fraction (log2)
1,HMADTIEVVVQVNGKVRAKISTSPEVFADSTKLQELALADANVQKFIAGQTIRKVIIPKGTKLLNIV,-0.198
2,HMADTSPEGVQKLIKAFEQFGVSKDDIEGFIQRRVDAITPANVVSLRKIFTSLRDGMSSAKDWFKGA,0.095
3,HMADVIKLVNTSVLNVRSGAGINYSKIGSLTQGTKVNIISESNGWSKINYNGKIGYISSQYVSEVS,-1.92
4,HMADVLLKHGSSGDYVWDLQYRLKTLSLFDQEMTGYFGPHTRQAVVNFQRKYGLPADGVVGPATWRALRK,-2.41
5,HMADVPSTIFEAYRILGLNPEAPPVAVKKVVDALRMSWHPDHARSEPDRRHREERIKQINAAWDLLKGV,-0.183
6,HMADVYFDGKFLGETPVTVAVSTTGKPAHEISLIRGGYEPWSTTYQGNPRPGQTATVMAILVHA,0.31
7,HMAEAAVELSQQILARLLEAGGSLPLSDKSSPEDIHRLFGVSKRTFKKAIGGLYKKGLILIHPERIELP,-1.37
8,HMAEAETVKFVGNSLLLVSGAAKGERLSVYTVGGQHVLSADATKPVDVAALHSGVYVVRTTNGVITKIVK,-1.25
9,HMAEATATVTASEMVVRSGPSSSYSVLGSLEKGTVVTVLAASDGIAKISYKGNTGYARIVDMELNSA,-0.612
10,HMAEDDAVQKAVREAVAESADAVADYKAGSERALNFIVGVVMKKTRGKASPGEVHRLVKAEVEK,0.595
11,HMAEDLRTLDGIDEDLLRDLAQAGITTRDGLAELSIDELREITGVEPGEAEKIILAARAHWFETDE,0.0602
12,HMAEEGEQAASNTAAQAEDRAAELAAAGEKGKQITKTLVAEFGIPKNEAYRLALDAVAAVKAER,-0.265
13,HMAEEPLRIWTDLQGRSIEASFIKFSGNNIVIKMKSGRDYEVARSLFSPGDQKYLSDLKKSTPE,-1.5
14,HMAEERVLSVPQSLAGERLDAALASLMPDYSRSRLASWIKEGLVTVDGAGAMPKQKLWGGETLRVQAQPT,0.373
15,HMAEKAVELTENEKAIQTILSNGALEIGELKTKLELSGKQWDVALKGLAKHGITQVSKVEGVVTVGL,0.359
16,HMAEKGIGRVNADWLNMRTSPGGEVLTVLKQGTELQVIGRSGSWLEVQHGNEQGYVSSRYITIQP,-0.356

row,Sequence,soluble fraction (log2)
1,HMAEKVIVVADSITVGELAEKLNLPVTNLIGELFKNGIVSTINQRIDFETASIIVEELGLDVELERK,-0.137
2,HMAELNLPVRKIGGEDYYYRQVKKKETIYGISKELGITKEDIIKYNPSVASGLQRNQILYFPVKDFK,-0.327
3,HMAELVISVKADGTIHYQDRQLTKEALAAVLETRPEALLNLYVDEKAPFEAFVGVVDIARLKRGGHFVIST,-1.94
4,HMAENPAYTKGVVNRLYKIRATPYYSYSYNVDQKTYEGRGKQYGEYENLHIGDTITVYYQRSNPSNSEA,-0.288
5,HMAEPIEKIIIEGNQRIEALTIQSYLLLRVGEPFNRQLMNQTLKSLYATGYFSDVAVTRVSSSLLVK,0.153
6,HMAEPLEIGDTVRIIDGFYGGEIGVISELVNPDAKNAEFEQVRVRLDQDTELALPIHNVERVRL,0.498
7,HMAEPRVQEVYFEFDGKQVEAGQVVSLIEQAYKNEGHQIGRIKDLKVYINSEEGKAYYVINGDDGEGKYIE,0.0727
8,HMAESLHVTAAALFEGRAMLGIDGSRRLLRVGETSPEGVKLVSATAREAVIEIDGRRQTLAPGRDT,-0.133
9,HMAESSLPKMPRDESKYIYHSVQPGETVYSLSKRYSVSESDIVKSNPGIDITKLSLGLEVAIPRI,0.691
10,HMAEVAFEEQNIEQISNLLLRIQAIFAELMTALDKEKGGEIADNLERLYVFFLEKLGDANVRKDPAP,0.585
11,HMAEVHVDGVTYQFSNPEQAVKFARKIAKELGLKVEVHGETVHVK,-0.0253
12,HMAEVTLTVREQEVLHLLARGMSNGEMAAHLYVEPTTIKYHLTGLLQKTGSRDRLQAVLWGIRAGMVH,-2.81
13,HMAEWIYGKNVVKQSIEEGMVLKLILQRKEDPLFVLAQEKQIPVEILDRHKMTSLVKSDRHQGVAAQI,-0.742
14,HMAFEDYAGEYRSAADFAESLHEDTGTEIPESLRYYIDWQALARDMALNGEIMVFQTGFDEVHIFWS,-0.63
15,HMAFEITSAERTRLEDIARKGLTAYTAEWKQLPASEKKALNKTGLQDFLKSMAADADSAREEEA,0.0228
